From paper PMC10433963 (2023)

Target: ^H7-SUMOClpC1^FLAG (recombinant ClpC1) (M. smegmatis, UniProt A0R574 1-848)
Assay: MST; 1 mM ATPγS; Kapp from Hill fit

Sequence of ^H7-SUMOClpC1^FLAG (recombinant ClpC1) (A0R574 whole entry): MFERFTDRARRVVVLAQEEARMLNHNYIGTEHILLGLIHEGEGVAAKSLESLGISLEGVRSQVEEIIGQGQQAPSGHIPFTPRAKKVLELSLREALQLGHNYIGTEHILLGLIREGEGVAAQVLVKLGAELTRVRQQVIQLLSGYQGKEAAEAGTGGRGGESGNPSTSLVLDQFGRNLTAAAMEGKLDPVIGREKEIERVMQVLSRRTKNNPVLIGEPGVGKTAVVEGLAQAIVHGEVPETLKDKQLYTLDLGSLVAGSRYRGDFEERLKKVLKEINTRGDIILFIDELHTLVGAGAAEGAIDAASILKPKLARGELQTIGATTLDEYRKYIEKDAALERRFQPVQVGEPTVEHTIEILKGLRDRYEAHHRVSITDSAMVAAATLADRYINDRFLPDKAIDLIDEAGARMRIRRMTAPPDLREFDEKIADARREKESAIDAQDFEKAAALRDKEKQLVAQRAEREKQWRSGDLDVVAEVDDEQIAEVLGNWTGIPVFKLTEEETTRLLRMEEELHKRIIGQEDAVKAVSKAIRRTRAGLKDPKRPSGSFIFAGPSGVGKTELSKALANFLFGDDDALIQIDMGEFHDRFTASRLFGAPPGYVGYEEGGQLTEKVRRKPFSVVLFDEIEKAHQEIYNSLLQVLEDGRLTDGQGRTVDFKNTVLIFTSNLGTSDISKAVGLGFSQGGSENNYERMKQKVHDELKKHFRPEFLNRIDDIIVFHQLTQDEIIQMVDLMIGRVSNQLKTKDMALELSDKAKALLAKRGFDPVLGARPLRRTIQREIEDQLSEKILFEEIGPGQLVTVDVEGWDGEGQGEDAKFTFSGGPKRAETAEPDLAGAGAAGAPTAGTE

Binder | Kd [µM]
DnaJ1 (recombinant) (natural protein) MAQREWVEKDFYKELGVSSDASADEIKKAYRKLAAELHPDRNSDPGAAERFKAVSEANSVLSDPAKRKEYDETRRLFAGGFGRRFNQGGGGFGGGFGSDGVEFNLGDLFDAAGQTGGANIGDLFGGLFGRGPQQRPSRPRRGNDLETETELSFLEATKGVAMPLRLTSPAPCTNCHGSGARPGTSPKVCPSCNGSGVISRNQGAFGFSEPCTECRGSGSIIEHPCQECRGTGVTTRTRTINVRIPPGVEDGQRIRLAGQGEAGLRGAPSGDLYVTVHVRPDKVFGRDGDDLTVTVPVSFHELALGTTLSVPTLDGKVGVRVPKGTSDGRILRVRGRGVPKRSGGHGDLLVTVKVAVPPNLEGEAAEALEAYAKAERASGFDPRAGWAGNV | 6.4
Magnesium chelatase (recombinant) (natural protein) MVSQPKDLPRTVGELRASGHRERGVKAEIRENLLAALAERRDVWPGILGFEDTVIPQLERALIAGHDVVLLGERGQGKTRLLRALTGLLDEWTPVIAGSELGEHPYSPITPESIRRAADSGDDLPVEWRHRSERYTEKLATPDTSVADLVGDIDPIKVAEGRSLGDPETIAYGLIPRAHRGIVAVNELPDLAERIQVAMLNVMEERDIQVRGYTLRLPLDVLVVASANPEDYTNRGRIITPLKDRFGAEIRTHYPLELEAEVGVIRQEAELAAEVPEYLLAVLARFARNLRESNSIDQRSGVSARFAIAAAETVAASARHRAAILGEDDPVARVVDLGTVIDVLRGKLEFETGEEGREQAVLEHLLRRATADTAQRLLGGIDVGPLVAAIEEGSPVTTGERVSAKDVVAALPDLPAIDAIAHRLNAVSVGQRAAAIELALEALYLAKRIDKVSGEGETVYG | 6.7
GntR (recombinant) (natural protein) MSPTPDPQSAVPAREIAYRIVYDAIASGRYLPGQWIREDEVTAEAGVSRTPLREALQRLQSEGLVQLVRHRGALVVGWTSADLDDLFDIRVALETYGARRAAQRRGGAQLESLQKLCASMDEILPAAQEPELQQLGHLCIDFHRGIHEAADNRKLLSVMPMVLAPPFVSEAFHHHTRLELEQAFAHHRELVEAIAIGDEDWAEGVMRAHLRHGRRSLRRMERHLPLMTSHDAEPAVTDTGQPETTSSDPVHE | 3.3
XRE (recombinant) (natural protein) MAQDENLAAVVSNAAQDIGSFIRAQREAAQVSVRQLAEKAGVSNPYLSQIERGLRKPSADVLNQIAKALRVSAEVLYVRAGILEPSEPSEVRDAIVNDVSITERQKQVLLDIYTSFRQQNEAAGEPEGAAVIPSPDEEPATD | 4.6
